Among the data in article PMC3612955 are Mical enzymatic activity (conversion of NADPH to NADP+) with F-actin values, retold here.

Some results are limits rather than exact numbers.

The assay concerns the target actin (untreated, of the in vitro assays of Fig. 1) (UniProt P68135).

Sequence of Mical (Q86BA1 whole entry): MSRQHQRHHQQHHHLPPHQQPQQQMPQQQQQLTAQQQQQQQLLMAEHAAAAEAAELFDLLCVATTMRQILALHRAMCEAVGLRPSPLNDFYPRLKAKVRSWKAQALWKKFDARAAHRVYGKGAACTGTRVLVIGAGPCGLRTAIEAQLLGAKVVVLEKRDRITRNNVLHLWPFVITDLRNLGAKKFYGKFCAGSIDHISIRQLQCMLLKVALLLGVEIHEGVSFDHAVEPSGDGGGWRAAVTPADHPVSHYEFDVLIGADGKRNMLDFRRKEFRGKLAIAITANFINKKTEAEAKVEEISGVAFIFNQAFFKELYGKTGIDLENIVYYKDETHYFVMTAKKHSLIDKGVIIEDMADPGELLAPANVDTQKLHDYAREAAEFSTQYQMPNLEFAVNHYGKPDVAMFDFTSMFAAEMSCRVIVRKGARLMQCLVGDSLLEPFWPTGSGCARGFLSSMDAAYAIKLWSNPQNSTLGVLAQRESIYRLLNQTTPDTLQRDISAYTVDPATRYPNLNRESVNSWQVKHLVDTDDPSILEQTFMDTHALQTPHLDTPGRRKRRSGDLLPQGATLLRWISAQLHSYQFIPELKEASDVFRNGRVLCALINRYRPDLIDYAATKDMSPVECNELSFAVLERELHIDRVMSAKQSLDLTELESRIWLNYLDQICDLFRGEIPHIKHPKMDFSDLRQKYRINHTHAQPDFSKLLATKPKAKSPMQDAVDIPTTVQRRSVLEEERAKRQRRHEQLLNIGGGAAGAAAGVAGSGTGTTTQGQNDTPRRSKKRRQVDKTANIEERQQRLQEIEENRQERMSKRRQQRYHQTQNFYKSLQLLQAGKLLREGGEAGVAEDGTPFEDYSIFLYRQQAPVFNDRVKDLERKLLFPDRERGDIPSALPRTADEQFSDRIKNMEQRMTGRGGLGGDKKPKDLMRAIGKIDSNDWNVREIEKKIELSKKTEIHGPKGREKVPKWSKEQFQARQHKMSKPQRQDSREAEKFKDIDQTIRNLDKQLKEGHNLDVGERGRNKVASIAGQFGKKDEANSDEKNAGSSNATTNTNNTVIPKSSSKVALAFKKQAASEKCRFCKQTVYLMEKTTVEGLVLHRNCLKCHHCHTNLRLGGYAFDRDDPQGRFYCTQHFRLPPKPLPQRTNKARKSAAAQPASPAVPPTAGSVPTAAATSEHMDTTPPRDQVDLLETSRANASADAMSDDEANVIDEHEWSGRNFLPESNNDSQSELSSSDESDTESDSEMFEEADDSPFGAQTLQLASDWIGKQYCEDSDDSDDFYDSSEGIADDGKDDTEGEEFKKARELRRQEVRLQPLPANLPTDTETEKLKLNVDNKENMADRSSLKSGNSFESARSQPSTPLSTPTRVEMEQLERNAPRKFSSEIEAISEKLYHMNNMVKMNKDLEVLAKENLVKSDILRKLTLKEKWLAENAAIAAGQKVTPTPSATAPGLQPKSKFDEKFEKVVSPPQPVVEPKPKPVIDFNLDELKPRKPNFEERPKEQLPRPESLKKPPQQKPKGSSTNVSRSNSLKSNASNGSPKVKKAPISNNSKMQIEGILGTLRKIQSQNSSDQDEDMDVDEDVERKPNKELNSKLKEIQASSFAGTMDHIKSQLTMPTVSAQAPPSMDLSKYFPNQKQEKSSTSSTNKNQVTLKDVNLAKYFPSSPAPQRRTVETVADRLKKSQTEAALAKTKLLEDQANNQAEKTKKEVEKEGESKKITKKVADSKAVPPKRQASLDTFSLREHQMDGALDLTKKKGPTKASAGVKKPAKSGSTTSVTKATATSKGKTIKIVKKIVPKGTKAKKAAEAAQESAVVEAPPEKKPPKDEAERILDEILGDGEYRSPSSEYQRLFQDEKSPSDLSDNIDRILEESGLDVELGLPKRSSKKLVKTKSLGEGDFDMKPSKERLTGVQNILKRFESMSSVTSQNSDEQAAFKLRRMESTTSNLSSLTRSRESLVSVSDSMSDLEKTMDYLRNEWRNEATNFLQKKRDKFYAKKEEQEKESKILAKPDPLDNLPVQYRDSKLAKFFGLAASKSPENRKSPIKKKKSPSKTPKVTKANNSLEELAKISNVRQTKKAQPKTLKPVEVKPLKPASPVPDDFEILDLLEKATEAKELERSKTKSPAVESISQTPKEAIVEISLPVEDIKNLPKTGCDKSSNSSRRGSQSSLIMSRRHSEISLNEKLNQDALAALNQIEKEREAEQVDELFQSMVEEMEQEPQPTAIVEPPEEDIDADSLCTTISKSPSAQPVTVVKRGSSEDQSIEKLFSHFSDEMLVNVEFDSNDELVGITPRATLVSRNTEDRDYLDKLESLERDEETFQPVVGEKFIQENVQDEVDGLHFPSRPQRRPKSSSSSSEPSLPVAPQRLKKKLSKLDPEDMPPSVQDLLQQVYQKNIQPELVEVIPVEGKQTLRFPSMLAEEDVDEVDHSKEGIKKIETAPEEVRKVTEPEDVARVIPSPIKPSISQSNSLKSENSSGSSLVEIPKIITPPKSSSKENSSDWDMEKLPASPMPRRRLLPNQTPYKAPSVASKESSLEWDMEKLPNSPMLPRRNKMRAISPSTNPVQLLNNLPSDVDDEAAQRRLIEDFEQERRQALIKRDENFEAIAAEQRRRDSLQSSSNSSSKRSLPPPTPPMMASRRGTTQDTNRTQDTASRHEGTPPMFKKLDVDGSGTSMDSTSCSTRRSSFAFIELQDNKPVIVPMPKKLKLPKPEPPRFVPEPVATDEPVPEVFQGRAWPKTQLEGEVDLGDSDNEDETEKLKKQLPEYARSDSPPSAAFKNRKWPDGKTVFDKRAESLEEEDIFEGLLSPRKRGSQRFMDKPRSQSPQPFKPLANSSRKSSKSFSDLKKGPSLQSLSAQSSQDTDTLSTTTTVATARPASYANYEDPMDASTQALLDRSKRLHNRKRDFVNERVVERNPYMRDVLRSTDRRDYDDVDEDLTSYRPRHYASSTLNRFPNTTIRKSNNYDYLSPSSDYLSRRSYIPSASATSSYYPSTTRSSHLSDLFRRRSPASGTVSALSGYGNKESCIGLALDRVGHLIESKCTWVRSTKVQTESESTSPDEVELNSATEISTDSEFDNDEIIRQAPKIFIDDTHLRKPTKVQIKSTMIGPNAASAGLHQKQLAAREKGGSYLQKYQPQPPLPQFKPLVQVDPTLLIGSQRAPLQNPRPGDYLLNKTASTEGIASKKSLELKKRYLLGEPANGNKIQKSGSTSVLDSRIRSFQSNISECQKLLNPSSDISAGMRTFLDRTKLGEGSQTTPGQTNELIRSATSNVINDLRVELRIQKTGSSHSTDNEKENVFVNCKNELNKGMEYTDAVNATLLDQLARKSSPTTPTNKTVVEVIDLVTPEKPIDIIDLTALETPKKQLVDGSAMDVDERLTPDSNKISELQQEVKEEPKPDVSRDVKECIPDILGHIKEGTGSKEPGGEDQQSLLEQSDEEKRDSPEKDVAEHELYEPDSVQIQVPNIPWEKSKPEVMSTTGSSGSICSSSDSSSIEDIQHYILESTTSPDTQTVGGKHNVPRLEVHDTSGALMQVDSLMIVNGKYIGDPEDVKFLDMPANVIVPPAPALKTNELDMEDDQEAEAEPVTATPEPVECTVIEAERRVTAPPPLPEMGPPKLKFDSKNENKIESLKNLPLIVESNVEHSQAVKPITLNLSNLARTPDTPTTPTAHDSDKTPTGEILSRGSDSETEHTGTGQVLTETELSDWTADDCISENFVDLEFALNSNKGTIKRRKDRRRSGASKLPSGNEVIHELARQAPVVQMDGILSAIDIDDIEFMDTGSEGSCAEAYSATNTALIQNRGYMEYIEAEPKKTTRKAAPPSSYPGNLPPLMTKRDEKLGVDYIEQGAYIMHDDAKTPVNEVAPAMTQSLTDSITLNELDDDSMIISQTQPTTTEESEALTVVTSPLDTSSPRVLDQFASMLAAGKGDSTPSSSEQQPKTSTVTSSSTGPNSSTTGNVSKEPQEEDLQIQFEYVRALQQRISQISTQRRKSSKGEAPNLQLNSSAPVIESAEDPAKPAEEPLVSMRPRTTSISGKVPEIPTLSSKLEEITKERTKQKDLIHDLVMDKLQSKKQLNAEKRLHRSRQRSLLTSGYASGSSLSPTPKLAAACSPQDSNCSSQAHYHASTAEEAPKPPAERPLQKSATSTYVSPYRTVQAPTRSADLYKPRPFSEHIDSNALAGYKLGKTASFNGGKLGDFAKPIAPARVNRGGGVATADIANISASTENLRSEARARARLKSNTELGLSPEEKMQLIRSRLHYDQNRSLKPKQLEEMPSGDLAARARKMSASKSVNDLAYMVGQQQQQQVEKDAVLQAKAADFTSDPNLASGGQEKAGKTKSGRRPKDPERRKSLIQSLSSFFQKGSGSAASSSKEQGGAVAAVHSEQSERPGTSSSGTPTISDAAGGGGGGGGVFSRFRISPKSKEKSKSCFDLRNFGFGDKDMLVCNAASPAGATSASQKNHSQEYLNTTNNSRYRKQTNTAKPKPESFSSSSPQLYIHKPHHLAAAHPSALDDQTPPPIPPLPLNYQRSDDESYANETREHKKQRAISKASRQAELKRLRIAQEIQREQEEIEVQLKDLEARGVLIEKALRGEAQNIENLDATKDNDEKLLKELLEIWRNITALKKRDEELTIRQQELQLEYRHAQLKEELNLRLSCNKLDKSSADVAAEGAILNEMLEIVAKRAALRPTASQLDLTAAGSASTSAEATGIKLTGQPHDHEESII

For “Mical (from UniProt Q86BA1 1-4723) (enzyme)”, the Mical enzymatic activity (conversion of NADPH to NADP+) with F-actin was > 100 fold.
